Data on 29 molecules can be found in patent publication US20220000982A1 (Novo Nordisk, published 2022).

*1 amine or outer side, *2 acyl side, *3 side chain or, on linkers, in order; H or OH if unused. Where no end group is shown, it is not given here. Side-chain parts run from the residue outwards. [ ]: non-standard residue; d: D form. The star is where a group is joined. C20 diacid = O=C(O)CCCCCCCCCCCCCCCCCCC(=O)*; C18 diacid = O=C(O)CCCCCCCCCCCCCCCCC(=O)*; γGlu = O=C(O)[C@H](CCC(=O)[*:2])N[*:1]; Trx = NC[C@H]1CC[C@H](C(=O)O)CC1; Nle = CCCC[C@H](N)C(=O)O; AEEA = NCCOCCOCC(=O)O; Aib = CC(C)(N)C(=O)O Some results are limits rather than exact numbers.

For one test, the target named is T1, human GIP receptor (human, UniProt P48546 22-466).
T1 sequence (looked up): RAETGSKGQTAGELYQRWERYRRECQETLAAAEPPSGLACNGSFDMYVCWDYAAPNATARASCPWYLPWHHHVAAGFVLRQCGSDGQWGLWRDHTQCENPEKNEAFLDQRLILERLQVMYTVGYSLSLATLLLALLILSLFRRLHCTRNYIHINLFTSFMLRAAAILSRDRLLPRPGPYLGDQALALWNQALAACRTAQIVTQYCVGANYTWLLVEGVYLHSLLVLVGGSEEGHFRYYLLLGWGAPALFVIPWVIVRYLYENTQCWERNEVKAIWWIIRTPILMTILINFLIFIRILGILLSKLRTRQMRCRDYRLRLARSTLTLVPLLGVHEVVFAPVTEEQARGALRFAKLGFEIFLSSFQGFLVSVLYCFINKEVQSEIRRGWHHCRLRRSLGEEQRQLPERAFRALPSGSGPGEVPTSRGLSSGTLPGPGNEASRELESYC
Nature of the test: cell-based or functional assay.
On to Ac-[dY]AEGTFISDYSIA[Nle]DKIRQQDFVK([AEEA-AEEA-γGlu-C18 diacid])WLLAQKG, for which the “EC50, hGIP-R CRE Luc, 0.2% HSA” value worked out at 0.0304 nM. On the same count and under the same terms, the figure for Y[Aib]EGTFISDYSIA[Nle]DKIRQQDFVK([AEEA-AEEA-γGlu-Trx-C20 diacid])WLLAQKG is 0.0447 nM; for YAEGTFISDYSIAMDKIHQQDFVNWLLAQKG (ligand) [hGIP(1-31)] it is 0.00224 nM; for Ac-[dY]AEGTFISDYSIA[Nle]DKIHQEDFVK([γGlu-γGlu-γGlu-Trx-C20 diacid])WLLAQKG it is 0.547 nM. With Ac-[dY]AEGTFISDYSIA[Nle]DKIRQEDFVK([AEEA-AEEA-γGlu-C18 diacid])WLLAQKG, the “EC50, hGIP-R CRE Luc, 0.2% HSA” value stood at 0.025 nM.

Regarding Ac-YAEGTFISDYSIA[Nle]DKIRQQDFVK([γGlu-γGlu-γGlu-C18 diacid])WLLAQKG, the “EC50, hGIP-R CRE Luc, 0.2% HSA” value worked out at 0.546 nM.

In the case of Y[Aib]EGTFISDYSIA[Nle]DKIHQEDFVK([γGlu-γGlu-γGlu-γGlu-Trx-C20 diacid])WLLAQKG, the “EC50, hGIP-R CRE Luc, 0.2% HSA” value stood at 0.81 nM.

For the molecule Ac-[dY]AEGTFISDYSIA[Nle]DKIRQQDFVK([γGlu-γGlu-γGlu-C18 diacid])WLLAQKG, the “EC50, hGIP-R CRE Luc, 0.2% HSA” value amounted to 0.0489 nM. On to Y[Aib]EGTFISDYSIA[Nle]DAIRQQDFVK([γGlu-γGlu-γGlu-Trx-C20 diacid])WLLAQKG, for which the “EC50, hGIP-R CRE Luc, 0.2% HSA” value is 0.266 nM.

As to Y[Aib]EGTFISDYSIA[Nle]DKIRQQDFVK([γGlu-γGlu-γGlu-Trx-C20 diacid])WLLAQKG, the “EC50, hGIP-R CRE Luc, 0.2% HSA” value was determined as 0.0721 nM. Consider Y[Aib]EGTFISDYSIA[Nle]DKIRQQDFVK([AEEA-AEEA-γGlu-Trx-C20 diacid])WLLAQKGKEEDWKHNITQ, for which the “EC50, hGIP-R CRE Luc, 0.2% HSA” value stood at 0.014 nM. Still for that read-out and setting: the figure for Ac-[dY]AEGTFISDYSIA[Nle]DKIRQQDFVK([γGlu-γGlu-γGlu-Trx-C20 diacid])WLLAQKG is 0.18 nM. Still for that read-out and setting: the figure for Y[Aib]EGTFISDYSIA[Nle]DKIRQQDFVK([γGlu-γGlu-γGlu-Trx-C20 diacid])WLLAQKGKEEDWKHNITQ is 0.022 nM; for Y[Aib]EGTFISDYSIA[Nle]DKIRQEDFVK([γGlu-γGlu-γGlu-C18 diacid])WLLAQKG it is 0.0629 nM.

With Y[Aib]EGTFISDYSIA[Nle]DKIHQQDFVK([γGlu-γGlu-γGlu-Trx-C20 diacid])WLLAQKP-NH2, the “EC50, hGIP-R CRE Luc, 0.2% HSA” value was found to be 0.0675 nM. For the molecule Ac-[dY][Aib]EGTFISDYSIA[Nle]DKIHQQDFVK([γGlu-γGlu-γGlu-Trx-C20 diacid])WLLAQKP-NH2, the “EC50, hGIP-R CRE Luc, 0.2% HSA” value came out at 0.0384 nM. The same measure, in the same setting: the same measure for Ac-[dY]AEGTFISDYSIA[Nle]DKIRQQDFVK([AEEA-AEEA-γGlu-γGlu-γGlu-C18 diacid])WLLAQKG: 0.0431 nM; for Ac-[dY]AEGTFISDYSIA[Nle]DKIRQQDFVK([γGlu-γGlu-γGlu-Trx-C20 diacid])WLLAQKP-NH2: 0.0762 nM; for Ac-[dY]AEGTFISDYSIA[Nle]DKIHQ[Aib]DFVK([γGlu-γGlu-γGlu-Trx-C20 diacid])WLLAQKG: 0.153 nM. Turning to Ac-[dY][Aib]EGTFISDYSIA[Nle]DKIRQQDFVK([γGlu-γGlu-γGlu-C18 diacid])WLLAQKP-NH2, the “EC50, hGIP-R CRE Luc, 0.2% HSA” value worked out at 0.0212 nM. For the molecule Y[Aib]EGTFISDYSIA[Nle]DAIRQQDFVK([γGlu-γGlu-γGlu-C18 diacid])WLLAQKG, the “EC50, hGIP-R CRE Luc, 0.2% HSA” value amounted to 0.0725 nM.

Take Y[Aib]EGTFISDYSIA[Nle]DKIRQQDFVK([γGlu-γGlu-γGlu-Trx-C20 diacid])WLLAQKP-NH2: the “EC50, hGIP-R CRE Luc, 0.2% HSA” value is 0.0615 nM. Still for that read-out and setting: the figure for Ac-[dY]AEGTFISDYSIA[Nle]DKIHQQDFVK([γGlu-γGlu-γGlu-Trx-C20 diacid])WLLAQKP-NH2 is 0.0712 nM; for HAEGTFTSDVSSYLEGQAAKEFIAWLVKGRG (ligand) [hGLP-1(7-37)] it is above 100 nM. Y[Aib]EGTFISDYSIA[Nle]DKIRQ[Aib]DFVK([γGlu-γGlu-γGlu-Trx-C20 diacid])WLLAQKG: the “EC50, hGIP-R CRE Luc, 0.2% HSA” value came to 0.0712 nM.

On to Ac-[dY]AEGTFISDYSIADDKIRQEDFVK([AEEA-AEEA-γGlu-C18 diacid])WLLAQKG, for which the “EC50, hGIP-R CRE Luc, 0.2% HSA” value turned out to be 0.0915 nM. On to Y[Aib]EGTFISDYSIA[Nle]DKIRQEDFVK([γGlu-γGlu-γGlu-Trx-C20 diacid])WLLAQKG, for which the “EC50, hGIP-R CRE Luc, 0.2% HSA” value was 0.252 nM. Consider Y[Aib]EGTFISDYSIA[Nle]DKIHQEDFVK([γGlu-γGlu-γGlu-γGlu-C18 diacid])WLLAQKG, for which the “EC50, hGIP-R CRE Luc, 0.2% HSA” value was 0.158 nM. Still for that read-out and setting: the same measure for Y[Aib]EGTFISDYSIA[Nle]DKIRQ[Aib]DFVK([γGlu-γGlu-γGlu-C18 diacid])WLLAQKG: 0.0094 nM.

A further test has as its target human GLP-1 receptor (human, UniProt P43220 24-463). Nature of the test: cell-based or functional assay.
With Ac-[dY][Aib]EGTFISDYSIA[Nle]DKIRQQDFVK([γGlu-γGlu-γGlu-C18 diacid])WLLAQKP-NH2, the “EC50, hGLP-1-R CRE Luc, 0.2% HSA” value was above 100 nM.
